Key:
[1] = target: T1, human CD3 expressed on cells (human, UniProt P07766 23-207; P04234 22-171; P09693 23-182); assay: flow cytometry, 25 nM
T1 construct: whole, on cells; CD3 complex on Jurkat cells and on human primary T cells
Procedure, shortened: (§1)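 Antibodies at 25 nM in PBS + 2% FBS were incubated with CD3-expressing cells for 30 minutes at 4° C and analysed by flow cytometry. Median fluorescence intensity was normalized to isotype control to give fold over isotype (FOI); FOI ≥10 counted as binding.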

[2] = target: T1, human CD3 expressed on cells; assay: flow cytometry, 25 nM, Jurkat cells (human primary T cells in c4 also <10)
Description: Purified antibodies were confirmed to bind CD3 expressed on cells using the CytoFLEX S or LX flow cytometers (Beckman Coulter). Antibodies were diluted to 25 nM in FACS buffer (PBS+2% FBS) and were incubated with CD3-expressing cells for 30 minutes at 4° C. […] The median fluorescence intensity of the binding signal for each antibody was normalized to the isotype control to obtain a fold over isotype value. An antibody with a fold over isotype (FOI) of ≥10 was considered to be positive for binding.

[3] = target: T2, cynomolgus monkey CD3 expressed on primary T cells (cynomolgus monkey, UniProt Q95LI5 22-198; Q95LI8 22-171; Q95LI7 23-181); assay: flow cytometry, 25 nM, cyno primary T cells
T2 construct: whole, on cells; CD3 complex on purified cynomolgus monkey T cells; also called cyno CD3
Procedure, shortened: as §1

cynomolgus monkey CD3 = target: T3, cynomolgus monkey CD3 (cynomolgus monkey, UniProt Q95LI5 22-198; Q95LI8 22-171; Q95LI7 23-181); assay: flow cytometry, cyno primary T cells
T3 construct: whole, on cells; CD3 on purified cynomolgus monkey CD3 pan T cells; also called cyno CD3; CD3 on cyno primary T cells
Procedure, shortened: as §1

T1 sequence (P07766 23-207, chain 1 of 3): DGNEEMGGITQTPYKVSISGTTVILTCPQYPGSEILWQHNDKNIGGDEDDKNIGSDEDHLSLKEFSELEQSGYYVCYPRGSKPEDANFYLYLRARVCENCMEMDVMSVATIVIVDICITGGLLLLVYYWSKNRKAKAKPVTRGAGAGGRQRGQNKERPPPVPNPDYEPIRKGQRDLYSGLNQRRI
T1 sequence (P04234 22-171, chain 2 of 3): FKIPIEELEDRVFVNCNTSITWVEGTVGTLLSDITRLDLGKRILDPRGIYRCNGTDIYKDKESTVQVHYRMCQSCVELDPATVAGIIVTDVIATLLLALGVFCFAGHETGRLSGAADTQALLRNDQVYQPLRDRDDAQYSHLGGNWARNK
T1 sequence (P09693 23-182, chain 3 of 3): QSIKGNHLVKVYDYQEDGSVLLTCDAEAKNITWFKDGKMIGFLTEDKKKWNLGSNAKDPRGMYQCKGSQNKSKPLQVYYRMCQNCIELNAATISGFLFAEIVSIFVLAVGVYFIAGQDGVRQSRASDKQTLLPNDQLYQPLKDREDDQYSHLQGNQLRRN
T2 sequence (Q95LI5 22-198, chain 1 of 3): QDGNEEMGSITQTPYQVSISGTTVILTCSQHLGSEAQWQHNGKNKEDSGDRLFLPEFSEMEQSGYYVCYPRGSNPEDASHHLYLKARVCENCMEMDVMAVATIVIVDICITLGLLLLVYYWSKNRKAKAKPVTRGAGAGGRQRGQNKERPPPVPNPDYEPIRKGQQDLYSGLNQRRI
T2 sequence (Q95LI8 22-171, chain 2 of 3): as the sequence (P04234 22-171, chain 2 of 3) above, with I5V, N15K, I20V, S32T, D33N, I34N, T64A, S74N, V83L, H141R counted along it
T2 sequence (Q95LI7 23-181, chain 3 of 3): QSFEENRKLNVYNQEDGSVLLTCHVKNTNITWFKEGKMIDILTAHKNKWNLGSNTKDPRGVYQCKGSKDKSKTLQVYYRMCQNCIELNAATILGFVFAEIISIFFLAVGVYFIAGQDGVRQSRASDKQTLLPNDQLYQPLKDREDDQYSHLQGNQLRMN
T3 sequence (Q95LI5 22-198, chain 1 of 3): as the sequence (Q95LI5 22-198, chain 1 of 3) above
T3 sequence (Q95LI8 22-171, chain 2 of 3): as the sequence (P04234 22-171, chain 2 of 3) above, with I5V, N15K, I20V, S32T, D33N, I34N, T64A, S74N, V83L, H141R counted along it
T3 sequence (Q95LI7 23-181, chain 3 of 3): as the sequence (Q95LI7 23-181, chain 3 of 3) above

Binder	Human primary T Cell Binding (FOI) [1]	binding result [2]	binding result [3]	binding result (cynomolgus monkey CD3)
mAb 45 (antibody, V domains shown) VH: QAQLVQSGSELKKPGASVKVSCKASGYTFTKHSMNWVRQAPGQGLEWMGWINTNTGNPMYGQGFTGRFVFSLDTSMTTTYLQISSLKAEDTAIYYCAREGDYDLWRGFFNFDYWGQGTLVTVSS VL: DIQMTQSPSSLSASVGDRVTITCRASQGIRNDLGWYQQKPGKAPKRLIYAASSLQSGVPSRFSGSGSGAEFTLTISSLQPEDFATYYCLQHNSYPRTFGQGTKVEIK	0.891 FOI	no binding (tested: FOI >=10 = positive)	no binding (tested: FOI >=10 = positive)	
mAb 48 (antibody, V domains shown) VH: QVQLVQSGAEVKKPGASVKVSCKASGYTFTGYYIHWVRQAPGQGLEWMGWINPKSGNRNYAQKFQGRVTMTRDTSIDTAYMELTRLRSDDTAVYYCARIEQLVFDYWGQGTLVTVSS VL: not shown	1.3 FOI	no binding (tested: FOI >=10 = positive)	no binding (tested: FOI >=10 = positive)	
mAb 63 (antibody, V domains shown) VH: QVQLVQSGAEVRKPGASVKVSCKASGYTFTGNHMHWVRQAPGQGLEWMGWINPKSGRTNFAQNFQGRVTMTRDTSISTAFMELSRLRSDDTAVYYCARMGDLLLFDFWGQGTLVTVSS VL: not shown	0.842 FOI	no binding (tested: FOI >=10 = positive)	no binding (tested: FOI >=10 = positive)	
mAb 64 (antibody, V domains shown) VH: QVQLMPSGAEVKEPGASVKVSCKASGYTFTGYYMHWVRQAPGQGLEWMGWINPNSGRTSYAKNFQGRVTMTRDTSISTAYMELSRLRSDDTAVYYCARIEQLVFDYWGQGTLVTVSS VL: not shown	0.816 FOI	no binding (tested: FOI >=10 = positive)	no binding (tested: FOI >=10 = positive)	
mAb 75 (antibody, V domains shown) VH: QVQLVQSGAEVKKPGASVRVSCKASGYTFTGNYIHWVRLAPGQGLEWMGWINPKSGRTQFVQKFQGRVTMTRDTSITTVYMELSRLRSDDTAVYYCARLGDLLNFDYWGQGTLVTVSS VL: not shown	0.694 FOI	no binding (tested: FOI >=10 = positive)	no binding (tested: FOI >=10 = positive)	
mAb 76 (antibody, V domains shown) VH: QVHLVQSGAEVKKPGASVKVSCKASGHTFTGFYVHWARQAPGQGLEWMGWIYSNSGRTSYSQKFQGRVAMTRDTSISTIYMDLSRLRSDDTAVYYCARLEQLVFDFWGQGTLVTVSS VL: not shown	0.921 FOI	no binding (tested: FOI >=10 = positive)	no binding (tested: FOI >=10 = positive)	
mAb 88 (antibody, V domains shown) VH: QVHLVQSGAEVKKPGASVKVSCKASGHTFTGYYVHWARQAPGQGLEWMGWIYSNSGRTSYSQKFQGRVAMTRDTSINTIYMDLSRLRSDDTAVYYCARLEQLVFDFWGQGTLVTVSS VL: not shown	0.885 FOI	no binding (tested: FOI >=10 = positive)	no binding (tested: FOI >=10 = positive)	
mAb 80 (antibody, V domains shown) VH: QVQLVQSGAEVKKPGASVKVSCKASGYTFAGYYLHWVRQAPGQGLEWMGWINPNSGRTESAQKFQGRVTLTRDTSITTAYMALSRLRSDDTAIYYCTRLEQLVFDYWGQGTLVTVSS VL: EIVLTQSPDFQSVTPKEKVTITCRASQSIGSSLHWYQQKPDQSPKLLIKYASQSFSGVPSRFSGSGSGTDFTLTINSLEAEDAATYYCHQSSSLPTFGQGTKVEIK	0.905 FOI	no binding (tested: FOI >=10 = positive)	no binding (tested: FOI >=10 = positive)	
mAb 82 (antibody, V domains shown) VH: QVHLVQSGAEVKKPGASVKVSCKASGHTFTGYYVHWARQAPGQGLEWMGWIYSNSGRTSYSQKFQGRVAMTRDTSISTIYMDLSRLRSDDTAVYYCARLEQLVFDFWGQGTLVTVSS VL: not shown	0.954 FOI	no binding (tested: FOI >=10 = positive)	no binding (tested: FOI >=10 = positive)	
mAb 84 (antibody, V domains shown) VH: QVHLVQSGAEVKKPGASVKVSCKASGHSFTGYYVHWARQAPGQGLEWMGWIYSNSGRTSYAQKFQGRVTMTRDTSISTTYMELSRLRSDDTAVYYCARLDQLVFDYWGQGTLVTVSS VL: not shown	0.805 FOI	no binding (tested: FOI >=10 = positive)	no binding (tested: FOI >=10 = positive)	
mAb 87 (antibody, V domains shown) VH: QVQLVQSGAEMKKPGASVKVSCKASGYTFTDYYLHWVRRAPGHGLEWMGWIYPKSGRRNYAQHFQGRVTMTRDTSINTAYMELSSLRSDDSAVYFCVRLEQLVFDYWGQGTLVTVSS VL: not shown	0.715 FOI	no binding (tested: FOI >=10 = positive)	no binding (tested: FOI >=10 = positive)	
mAb 89 (antibody, V domains shown) VH: QVQLVQSGAEVKKPGASVKVSCKASGYTFAGYYLHWVRQAPGQGLEWMGWINPNSGRTESAQKFQGRVTLTRDTSITTAYMALSRLRSDDTAIYYCTRLEQLVFDYWGQGTLVTVSS VL: DIQMTQSPSSLSASVGDRVTITCRASQGISNYLAWFQQKPGKAPKSLIYAASSLQSGVPSKFSGSGSGTDFTLTISSLQPEDFATYYCQQYNSYPITFGQGTRLEIK	0.594 FOI	no binding (tested: FOI >=10 = positive)	no binding (tested: FOI >=10 = positive)	
mAb 91 (antibody, V domains shown) VH: QVQLVQSGAEVKKPGASVKVSCKASGYTFTGYYIHWVRQAPGQGLEWMGWINPKSGNTVYAQRFQGRVTMTRDTSISTAYMDLSRLKSDDTAVYYCARLEQLVFDYWGQGALVTVSS VL: not shown	0.746 FOI	no binding (tested: FOI >=10 = positive)	no binding (tested: FOI >=10 = positive)	
mAb 293 (antibody, V domains shown, VH and VL only) VH: EVQLLESGGDLVQPGGSLRLSCAASGFTFSRNAVSWVRQAPGRGLEWVSTISGRGDKTNYVDSVKGRFTISRDNSKNTLYLQMNSLRAEDTAVYYCTKMFSYYYYYMDVWGKGTTVTVSS VL: SYELTQPLSVSVALGQTARITCGGNNIGSKDVHWYQQKPGQAPVLVIYRDSNRPSGIPERFSGSNSGNTATLTISRAQAGDEADYYCQVWDSSTAVFGGGTQLTAL				no binding (tested: FOI ≥10 = positive; 25 nM)
mAb 302 (antibody, V domains shown, VH and VL only) VH: EGQLLESGGGLVQPGGSLRLSCAASGFTFSRYAMSWIRQAPGKGLEWVSVINGSGGDKNYADSVRGRFTISRDNSKNSLYLLMNGLRVEDTAIYFCAKKFSYYYYYMDVWGKGTTVTVSS VL: SYELTQPLSVSVALGQTARITCGGNNIGGKDVHWYQQKPGQAPVLVIYRDSNRPSGIPERFSGSNSGNTATLTISRAQAGDEADYYCQVWDSRTAVFGGGTQLTAL				no binding (tested: FOI ≥10 = positive; 25 nM)
mAb 307 (antibody, V domains shown, VH and VL only) VH: EVHLLESGGGMVQPGGSRRLSCAASGFSFRNSAMSWVRQAPGKGLEWVSVIDGRGTTSNYADSVKGRFTISRDNSKNTLYLQMNSLRAEDTAVYYCAKKYSYYYYYMDVWGKGTTVTVSS VL: SYELTQPLSVSVALGQTARITCGGNNIGSKDVHWYQQKPGQAPVLVIYRDSNRPSGIPERFSGSNSGNTATLTISRAQAGDEADYYCQVWDSRTAVFGGGTHLTAL				no binding (tested: FOI ≥10 = positive; 25 nM)
mAb 320 (antibody, V domains shown, VH and VL only) VH: QVQLVESGGGVVQPGRSLRLSCAASGFTFRSYGMHWVRQAPGKGLEWVAIIWYDGSKKYYADSVKGRFTISRDNSKNILYLQMNSLRAEDTAVYYCARQEFNWNDGGYYYMDVWGKGTTVTVSS VL: DIQLTQSPSFLSASVGDRVTITCRASQGISSYLDWCQQKPGKAPKLLIYAASTLQSGVPSRFSGSGSGTEFTLTISSLQPEDFATYYCQQLDNYPPTFGGGTKVEIK				no binding (tested: FOI ≥10 = positive; 25 nM)
mAb 321 (antibody, V domains shown, VH and VL only) VH: QVQLVESGGGVVQPGRSLRLSCVASGFTFRSFGMHWVRQAPGKGLEWVVVISNDGSHKYYVESVKGRFTISRDNSKNTLYLQMNSLRPEDTAVYYCARRDYYGSGMDVWGKGTTVTVSS VL: SYELTQPPSVSVSPGQTARITCSGDALPKKYAYWYQQKSGQAPVLVIYEDRKRPSGIPERFSGSSSGTMATLTISGAQVEDEADYYCYSTDSSGNHAVFGGGTQLTAL				no binding (tested: FOI ≥10 = positive; 25 nM)
mAb 322 (antibody, V domains shown, VH and VL only) VH: QVQLVESGGGVVQPGRSLRLSCVASGFTFRSYGMHWVRQAPGKGLEWVVVISNDGSHKYYVESVKGRFTISRDNSKNTLYLQMNSLRAEDTAVYYCARRDYYGSGMDVWGKGTTVTVSS VL: SYELTQPPSVSVSPGQTARITCSGDALPKKYAYWYQQKSGQAPVLVIYEDRKRPSGIPERFSGSSSGTMATLTISGAQVEDEADYYCYSTDSSGNHAVFGGGTQLTAL				no binding (tested: FOI ≥10 = positive; 25 nM)
